For seven molecules, EC50 results are on record in US20020099180A1 (published 2002).

The target in assay [1] is T1, fibroblast activating protein alpha (FAPα), cell surface-bound on FAP+ cells (FAP over-expressing HT1080 … (human, UniProt Q12884 1-760)).
T1 construct: whole, on cells; Target of the flow cytometry and of the immunohistology; also called cell membrane expressed FAP
T1 sequence (looked up): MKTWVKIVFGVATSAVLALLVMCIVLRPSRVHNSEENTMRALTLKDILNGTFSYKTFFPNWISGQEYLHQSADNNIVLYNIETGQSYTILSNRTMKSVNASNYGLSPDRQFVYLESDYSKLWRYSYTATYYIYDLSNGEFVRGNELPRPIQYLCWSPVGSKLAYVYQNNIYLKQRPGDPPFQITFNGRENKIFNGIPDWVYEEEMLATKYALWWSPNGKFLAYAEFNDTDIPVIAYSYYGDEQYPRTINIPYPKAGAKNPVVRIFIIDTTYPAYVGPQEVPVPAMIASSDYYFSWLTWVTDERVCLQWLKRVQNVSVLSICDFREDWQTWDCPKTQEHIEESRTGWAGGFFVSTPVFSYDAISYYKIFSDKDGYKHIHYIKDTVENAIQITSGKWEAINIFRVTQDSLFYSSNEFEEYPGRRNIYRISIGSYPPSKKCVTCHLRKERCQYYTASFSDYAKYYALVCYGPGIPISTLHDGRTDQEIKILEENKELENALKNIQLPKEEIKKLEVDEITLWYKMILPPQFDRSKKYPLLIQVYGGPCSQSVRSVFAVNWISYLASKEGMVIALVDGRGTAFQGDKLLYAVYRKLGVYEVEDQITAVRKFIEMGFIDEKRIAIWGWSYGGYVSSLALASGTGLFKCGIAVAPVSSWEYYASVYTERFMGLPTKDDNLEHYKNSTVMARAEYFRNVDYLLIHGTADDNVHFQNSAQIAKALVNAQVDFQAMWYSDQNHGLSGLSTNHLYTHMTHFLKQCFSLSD
The experiment in a line: flow cytometry saturation on FAP expressing HT1080 cells; SC50. Background: In flow cytometry, cells or beads pass a laser one at a time.

In assay [2] the target is T1, fibroblast activating protein alpha …. Nature of the assay: binding to FAP+ cells, cell analyser, half maximal saturation.
For assay [3] the target is unchanged. Nature of the assay: flow cytometry saturation on FAP-overexpressing cells; half maximal saturation.
Assay [4] addresses T2, fibroblast activating protein alpha (FAPα), purified and immobilised (ELISA wells) (human, UniProt Q12884 27-760, limits assumed).
T2 construct: also called purified FAP; immobilized FAP
T2 sequence (looked up): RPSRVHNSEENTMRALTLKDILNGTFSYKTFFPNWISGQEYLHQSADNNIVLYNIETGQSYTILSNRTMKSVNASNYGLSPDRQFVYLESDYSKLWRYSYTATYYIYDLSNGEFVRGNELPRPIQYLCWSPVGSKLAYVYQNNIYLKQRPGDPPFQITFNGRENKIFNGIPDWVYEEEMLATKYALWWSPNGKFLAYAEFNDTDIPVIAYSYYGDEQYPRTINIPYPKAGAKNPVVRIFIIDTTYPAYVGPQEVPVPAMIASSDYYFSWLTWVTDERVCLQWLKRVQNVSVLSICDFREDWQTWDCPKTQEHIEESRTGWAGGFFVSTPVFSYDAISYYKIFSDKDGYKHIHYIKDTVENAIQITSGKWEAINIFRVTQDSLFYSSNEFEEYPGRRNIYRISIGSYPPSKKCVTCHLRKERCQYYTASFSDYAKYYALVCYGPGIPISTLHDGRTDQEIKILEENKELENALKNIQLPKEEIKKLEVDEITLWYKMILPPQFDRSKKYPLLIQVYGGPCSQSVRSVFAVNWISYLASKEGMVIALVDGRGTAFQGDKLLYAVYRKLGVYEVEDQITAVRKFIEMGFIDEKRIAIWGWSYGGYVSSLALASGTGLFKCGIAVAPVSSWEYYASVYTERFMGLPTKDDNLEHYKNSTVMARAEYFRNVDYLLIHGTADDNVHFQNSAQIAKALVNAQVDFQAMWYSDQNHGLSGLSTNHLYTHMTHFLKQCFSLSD
Nature of the assay: sandwich ELISA, c-myc tag detection; SC50 = concentration of half maximal saturation of binding. A general note: An ELISA detects its analyte on a solid surface through an enzyme-linked reagent.

B1: scFv #34 (VH #34, IgG; VL III43; murine HCDR3 F19) (scFv)
scFv: QVQLQQSGAEVKKPGSSVKVSCKASGGTFSTHTINWVRQAPGQGLEWMGGIAPMFGTANYAQKFQGRVTITADKSTSTAYMEMSSLRSDDTAVYYCARRRIAYGYDEGHAMDYWGQGTLVTVSSASTKGPKLEEGEFSEARVDIQMTQSPSSLSASTGDRVTITCRASQDISSYLAWYQQAPGKAPHLLMSGATTLQTGVPSRFSGSGSGTDFTLTISSLQAEDVAVYYCQQYYRTPFTFGQGTKLEIKRTVAAPSVFAA
notes: Humanised monovalent scFv, detected through the c-myc tag with 9E10; also called clone #34; VH34YOL III43; not shown: c-myc and HIS6 tags (pOPE101), or pIII in the screening ELISA
For the molecule B1, the EC50 – broadly, the midpoint of the concentration-response curve – was 6 nM in assay [1] and approximately 6 nM in assay [2].

B2: Mb #34 (minibody of scFv #34) (other)
chain: B1 scFv
notes: also called scFv #34-minibody; not shown: hinge-linker-CH3-cmyc-HIS6 of the minibody
The molecule B2 gave an EC50 in assay [3] of 2 nM.

B3: scFv F19 (parental murine scFv of the monoclonal antibody F19) (scFv, V domains shown)
VH: EVQLQQSGPELVKPGASVKMSCKTSRYTFTEYTIHWVRQSHGKSLEWIGGINPNNGIPNYNQKFKGRATLTVGKSSSTAYMELRSLTSEDSAVYFCARRRIAYGYDEGHAMDYWGQGTSVTVSS
VL: DIVMSQSPSSLAVSVGEKVTMSCKSSQSLLYSRNQKNYLAWFQQKPGQSPKLLIFWASTRESGVPDRFTGSGFGTDFNLTISSVQAEDLAVYDCQQYFSYPLTFGAGTKLELK
On to B3, for which the EC50 in assay [1] and in assay [4] was 20 nM in each case.

B4: chimeric scFv III43 (murine VH F19 / human VL III43) (scFv, V domains shown)
VH: B3 VH
VL: DIQMTQSPSSLSASTGDRVTITCRASQDISSYLAWYQQAPGKAPHLLMSGATTLQTGVPSRFSGSGSGTDFTLTISSLQAEDVAVYYCQQYYRTPFTFGQGTKLEIKR
As for B4, the response in assay [4] was half-maximal at 20 nM (EC50).

B5: scFv #13 in minibody format (bivalent) (other)
chain: QVQLVESGGTLVQPGGSLRLSCAASGFTFSSYAMSWIRQAPGKGLEWVSGISASGGYIDYADSVKGRVTISRDNSKNMAYLQMSSLRAEDTALYYCAKGGNYQMLLDHWGQGTLVTVSSASTKGPKLEEGEFSEARVDIQMTQSPSSLSASTGDRVTITCRASQDISSYLAWYQQAPGKAPHLLMSGATTLQTGVPSRFSGSGSGTDFTLTITSLQSEDFATYYCQQYYIYPPTFGQGTRVEIKRTVAAPSVFAA
notes: also called scFv #13 (as bivalent in minibody format); scFv #13 (minibody format); not shown: hinge-linker-CH3-cmyc-HIS6 of the minibody
The molecule B5 showed an EC50 in assay [2] of 8 to 12 nM.

B6: scFv #50 in minibody format (bivalent) (other)
chain: QVQLVESGGGLVQPGGSLRLSCAASGFTFSNYWMSWVRQAPGKGLEWVANIKQDGSEKYYVDSVKGRFTISRDNAKNSLYLQMNSLRAEDTAVYYCARGSLCTDGSCPTIGPGPNWGQGTLVTVSSAPTKAPKLEEGEFSEARVDIQMTQSPSSLSASTGDRVTITCRASQDISSYLAWYQQAPGKAPHLLMSGATTLQTGVPSRFSGSGSGTDFTLTITSLQSEDFATYYCQQYYIYPPTFGQGTRVEIKRTVAAPSVFAA
notes: Minibody: bivalent homodimeric scFv derivative; also called scFv #50 (as bivalent in minibody format); not shown: hinge-linker-CH3-cmyc-HIS6 of the minibody
With B6, it took 32 nM to reach a half-maximal effect in assay [2] (EC50).

B7: scFv #18 (VH #18, IgG; VL III43; murine HCDR3 F19) (scFv)
scFv: QVQLVQSGAELKKPGSSMKVSCKASGDTFSTYSINWVRQAPGQGLEWMGVINPSGGSTSYAQKFQGRVTMTRDTSTSTVYMELSSLRSEDTAVYYCARRRIAYGYDEGHAMDYWGQGTLVTVSSASTKGPKLEEGEFSEARVDIQMTQSPSSLSASTGDRVTITCRASQDISSYLAWYQQAPGKAPHLLMSGATTLQTGVPSRFSGSGSGTDFTLTISSLQAEDVAVYYCQQYYRTPFTFGQGTKLEIKRTVAAPSVFAA
notes: Humanised monovalent scFv, detected through the c-myc tag with 9E10; also called clone #18; VH18 YOL III43; not shown: c-myc and HIS6 tags (pOPE101), or pIII in the screening ELISA
Regarding B7, the EC50 was 6 nM in assay [1] and approximately 6 nM in assay [2].
